Laboratory results as given in publication PMC7988105.

What was measured:
[1] = target: NRXN1β (lacking SS4) Fc fusion used as bait in the pull-down; assay: pull-down; soluble recombinant proteins mixed at 0.03 μM each in HBSS, 2 mM CaCl2, 1 mM MgCl2, 3 h, then Protein A-Sepharose 1 h, room temperature; NLGN3-His6 detected with anti-His
[2] = target: mouse NLGN3 ECD (residues 35–684) with C-terminal His6 tag (mouse) (UniProt Q8BYM5); assay: ITC; NLGN3 ECD (20 µM) in the cell, PTPδ Ig1–Fn1 (200 µM) injected; 20 mM Tris-HCl pH 8.0, 150 mM NaCl, 25 °C; one-site model
[3] = target: NLGN3 ECD HSE/AAA mutant (H279A S280A E281A) with His6 tag (mouse) (UniProt Q8BYM5); assay: as above
[4] = target: NLGN3 ECD MF/IS mutant (M614I F615S) with His6 tag (mouse) (UniProt Q8BYM5); assay: as above
[5] = target: PTPδA3B– extracellular domain fused to Fc; assay: pull-down; details: parent: est. 100; read off a plot

NLGN3 ECD MF/IS mutant (M614I F615S) with His6 tag (mouse), sequence (Q8BYM5 35-684 M614I/F615S): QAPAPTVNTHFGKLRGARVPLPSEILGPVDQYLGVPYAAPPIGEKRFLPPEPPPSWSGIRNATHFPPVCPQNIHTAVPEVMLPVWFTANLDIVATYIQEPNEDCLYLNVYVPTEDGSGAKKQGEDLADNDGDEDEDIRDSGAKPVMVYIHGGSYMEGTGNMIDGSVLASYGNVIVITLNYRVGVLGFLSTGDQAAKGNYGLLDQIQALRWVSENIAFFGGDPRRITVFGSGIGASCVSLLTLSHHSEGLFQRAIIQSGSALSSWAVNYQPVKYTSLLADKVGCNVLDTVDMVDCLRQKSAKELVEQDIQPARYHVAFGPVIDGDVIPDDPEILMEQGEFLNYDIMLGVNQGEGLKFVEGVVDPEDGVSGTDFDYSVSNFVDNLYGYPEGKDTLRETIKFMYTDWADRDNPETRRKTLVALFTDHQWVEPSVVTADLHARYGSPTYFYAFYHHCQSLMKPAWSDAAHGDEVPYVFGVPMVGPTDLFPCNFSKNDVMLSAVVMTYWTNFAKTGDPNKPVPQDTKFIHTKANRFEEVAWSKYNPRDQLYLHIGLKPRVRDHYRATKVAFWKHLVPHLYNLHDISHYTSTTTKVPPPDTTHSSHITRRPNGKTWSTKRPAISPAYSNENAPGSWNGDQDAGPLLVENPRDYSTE
NLGN3 ECD HSE/AAA mutant (H279A S280A E281A) with His6 tag (mouse), sequence (Q8BYM5 35-684 H279A/S280A/E281A): as the sequence (Q8BYM5 35-684 M614I/F615S) above, with H245A, S246A, E247A, I580M, S581F counted along it
mouse NLGN3 ECD (residues 35–684) with C-terminal His6 tag (mouse), sequence (Q8BYM5 35-684): as the sequence (Q8BYM5 35-684 M614I/F615S) above, with I580M, S581F counted along it

Substance | percent of parent [5] | also measured
NLGN3 ECD R448C mutant (R/C; equivalent to human R451C) with His6 tag (from UniProt Q8BYM5 35-684) (domain or fragment) | – | pulldown efficiency (% of wild-type) (% of wild-type) [1]: 40
PTPδA3B– Ig1–Fn1 (domain or fragment) | – | Kd [2]: 4.4 µM; Kd [3]: 1400 nM; Kd [4]: 27 µM
mouse NLGN3 ECD (residues 35–684) with C-terminal His6 tag (from UniProt Q8BYM5) D362A; E372A; N375A | 16 % WT | –
mouse NLGN3 ECD (residues 35–684) with C-terminal His6 tag (from UniProt Q8BYM5) H279A; S280A; E281A | 88 % WT | –
mouse NLGN3 ECD (residues 35–684) with C-terminal His6 tag (from UniProt Q8BYM5) M614A; F615A | 11 % WT | –
mouse NLGN3 ECD (residues 35–684) with C-terminal His6 tag (from UniProt Q8BYM5) M614I; F615S | 14 % WT | –
